According to paper doi:10.1101/2021.12.09.471704:
Read-outs that look alike come from different tables or passages of the source.

Columns and labels:
[1] = biological target: T1, SiAgo (complex subunit);SiAga1 (complex subunit) (Sulfolobus islandicus M164;Sulfolobus …, UniProt C4KI01;C4KI00 1-459;1-243, |); assay: competition
T1 sequence 1: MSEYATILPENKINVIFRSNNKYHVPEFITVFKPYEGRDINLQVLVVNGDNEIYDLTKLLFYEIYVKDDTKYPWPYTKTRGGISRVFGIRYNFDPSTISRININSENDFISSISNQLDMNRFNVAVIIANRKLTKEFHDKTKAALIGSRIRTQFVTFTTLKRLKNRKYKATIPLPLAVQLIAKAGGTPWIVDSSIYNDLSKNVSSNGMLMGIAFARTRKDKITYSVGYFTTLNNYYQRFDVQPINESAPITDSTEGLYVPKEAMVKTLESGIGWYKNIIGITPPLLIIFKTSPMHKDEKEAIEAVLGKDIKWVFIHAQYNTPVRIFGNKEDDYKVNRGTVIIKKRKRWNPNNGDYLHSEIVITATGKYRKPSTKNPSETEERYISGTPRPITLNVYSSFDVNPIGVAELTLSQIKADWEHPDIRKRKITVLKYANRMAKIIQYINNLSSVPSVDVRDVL
T1 sequence 2: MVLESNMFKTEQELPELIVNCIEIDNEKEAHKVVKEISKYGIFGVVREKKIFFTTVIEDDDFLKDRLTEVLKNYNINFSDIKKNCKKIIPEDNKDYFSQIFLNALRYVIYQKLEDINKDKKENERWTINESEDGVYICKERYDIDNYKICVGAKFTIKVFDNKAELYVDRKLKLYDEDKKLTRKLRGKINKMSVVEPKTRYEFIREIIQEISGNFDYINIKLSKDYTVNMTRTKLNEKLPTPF

[2] = biological target: T1, SiAgo (complex subunit);SiAga1 (complex …); assay: EMSA
[3] = biological target: T1, SiAgo (complex subunit);SiAga1 (complex …); assay: EMSA; remark: listed apart in the source
[4] = biological target: T2, SiAgo (Sulfolobus islandicus M164, UniProt C4KI01 1-459); assay: EMSA
T2 sequence: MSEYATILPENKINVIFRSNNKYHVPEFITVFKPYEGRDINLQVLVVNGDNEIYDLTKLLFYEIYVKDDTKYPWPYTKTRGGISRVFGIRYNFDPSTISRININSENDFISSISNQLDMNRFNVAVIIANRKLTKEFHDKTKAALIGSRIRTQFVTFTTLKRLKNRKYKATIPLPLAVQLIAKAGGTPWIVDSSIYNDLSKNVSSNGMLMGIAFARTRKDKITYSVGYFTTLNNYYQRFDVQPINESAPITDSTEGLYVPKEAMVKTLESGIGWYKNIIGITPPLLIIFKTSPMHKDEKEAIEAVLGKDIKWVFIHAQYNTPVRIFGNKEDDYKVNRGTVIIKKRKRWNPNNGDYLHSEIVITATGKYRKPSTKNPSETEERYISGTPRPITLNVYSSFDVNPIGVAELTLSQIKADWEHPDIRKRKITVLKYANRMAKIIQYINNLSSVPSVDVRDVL

[5] = biological target: T3, SiAgo M2;SiAga1 (complex subunit) (Sulfolobus islandicus M164;Sulfolobus …, UniProt C4KI01;C4KI00 1-459;1-243, K183A|); assay: EMSA
T3 sequence 1: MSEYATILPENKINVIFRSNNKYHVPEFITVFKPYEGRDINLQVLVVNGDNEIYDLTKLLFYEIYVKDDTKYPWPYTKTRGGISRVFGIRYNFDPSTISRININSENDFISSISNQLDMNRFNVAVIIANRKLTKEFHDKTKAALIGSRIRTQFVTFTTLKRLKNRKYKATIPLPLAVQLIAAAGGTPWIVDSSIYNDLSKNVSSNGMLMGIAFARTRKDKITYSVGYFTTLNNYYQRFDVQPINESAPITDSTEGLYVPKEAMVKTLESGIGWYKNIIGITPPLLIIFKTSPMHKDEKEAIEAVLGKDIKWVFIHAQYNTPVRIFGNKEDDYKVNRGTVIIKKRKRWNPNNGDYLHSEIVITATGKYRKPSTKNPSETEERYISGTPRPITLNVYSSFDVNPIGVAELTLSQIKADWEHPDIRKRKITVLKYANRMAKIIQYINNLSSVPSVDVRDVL
T3 sequence 2: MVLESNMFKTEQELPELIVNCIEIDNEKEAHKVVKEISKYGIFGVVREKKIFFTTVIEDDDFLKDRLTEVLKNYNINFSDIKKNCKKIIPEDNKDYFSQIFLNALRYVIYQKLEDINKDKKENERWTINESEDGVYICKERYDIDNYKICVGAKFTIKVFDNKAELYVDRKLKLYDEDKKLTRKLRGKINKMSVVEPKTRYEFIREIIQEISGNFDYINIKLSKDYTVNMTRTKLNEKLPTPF

[6] = biological target: T4, SiAgo M1;SiAga1 (complex subunit) (Sulfolobus islandicus M164;Sulfolobus …, UniProt C4KI01;C4KI00 1-459;1-243, K142A|); assay: EMSA
T4 sequence 1: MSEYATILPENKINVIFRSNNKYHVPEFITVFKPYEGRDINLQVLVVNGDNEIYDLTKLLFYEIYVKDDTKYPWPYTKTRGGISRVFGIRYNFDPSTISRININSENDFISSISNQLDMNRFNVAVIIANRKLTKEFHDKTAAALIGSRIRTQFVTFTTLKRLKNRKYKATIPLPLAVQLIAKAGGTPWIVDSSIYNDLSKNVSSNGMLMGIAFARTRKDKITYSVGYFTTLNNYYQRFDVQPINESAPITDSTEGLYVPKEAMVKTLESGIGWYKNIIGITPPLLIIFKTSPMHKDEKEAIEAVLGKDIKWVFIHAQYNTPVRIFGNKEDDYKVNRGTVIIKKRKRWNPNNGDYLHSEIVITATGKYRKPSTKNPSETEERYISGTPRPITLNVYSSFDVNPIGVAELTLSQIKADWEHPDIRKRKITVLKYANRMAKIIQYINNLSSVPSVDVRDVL
T4 sequence 2: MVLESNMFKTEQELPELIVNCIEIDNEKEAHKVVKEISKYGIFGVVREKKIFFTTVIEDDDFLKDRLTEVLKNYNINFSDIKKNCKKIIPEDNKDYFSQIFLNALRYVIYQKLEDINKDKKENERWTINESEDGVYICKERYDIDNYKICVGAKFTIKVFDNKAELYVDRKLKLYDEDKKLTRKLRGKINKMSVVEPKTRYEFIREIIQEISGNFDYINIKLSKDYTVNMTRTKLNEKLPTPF

[7] = biological target: T3, SiAgo M2;SiAga1 (complex subunit); assay: EMSA; remark: listed apart in the source
[8] = biological target: T4, SiAgo M1;SiAga1 (complex subunit); assay: EMSA; remark: listed apart in the source

B1: guide 5P-RNA + TDNA competitor (mixed)
RNA: UCAAAGCUUAGAUACCCUGGA
DNA: CCTCCAGGGTATCTAAGCTTTGAA
modifications: guide 5' phosphate
B1: binds [1].

B2: guide 5P-RNA + TRNA (mixed)
RNA 1: UCAAAGCUUAGAUACCCUGGA
RNA 2: CCUCCAGGGUAUCUAAGCUUUGAA
modifications: guide 5' phosphate
B2: binds [2].

B3: guide 5P-RNA + TRNA competitor (mixed)
RNA 1: UCAAAGCUUAGAUACCCUGGA
RNA 2: CCUCCAGGGUAUCUAAGCUUUGAA
modifications: guide 5' phosphate
B3: binds [1].

UCAAAGCUUAGAUACCCUGGA (ssRNA, 5' phosphate) [5P-RNA]: binds [3]; binds [4]; binds [5]. UCAAAGCUUAGAUACCCUGGA (ssRNA, 5' phosphate) [5P-RNA]: binds [6].

B4: guide 5P-RNA + TDNA (mixed)
RNA: UCAAAGCUUAGAUACCCUGGA
DNA: CCTCCAGGGTATCTAAGCTTTGAA
modifications: guide 5' phosphate
B4: binds [2]; binds [7]; binds [8].
